Reference: the supplement of paper PMC9112550, “Optimization of the antimicrobial peptide Bac7 by deep mutational scanning” (BMC Biology, 2022)
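Also: peptides expressed intracellularly from a pBAD plasmid library in pooled LB shake-flask culture, induced with 0.3% L-arabinose, DNA abundance read by NGS, three biological replicates, DESeq2 with apeglm shrinkage.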

What follows are sequences tested on Escherichia coli TOP10 (assay: shrunken log2 fold change of peptide-encoding DNA abundance (4.5 h post-induction vs induction); higher = less antimicrobial activity (less host growth inhibition)). Details: time post-induction: 4.5 h; library: site-saturation at positions 5, 18, 19, 20.
RRIRIRPPRLPRPRPRPELPPRP was tested, and the “shrunken log2 fold change” value was 0.0135.
For RRIRVRPPRLPRPRPRPTGLPRP, the “shrunken log2 fold change” value was 0.000711.
With RRIRWRPPRLPRPRPRPHWTPRP the “shrunken log2 fold change” value was -0.158.
With RRIRSRPPRLPRPRPRPKAGPRP the “shrunken log2 fold change” value was 0.19.
In the case of RRIRHRPPRLPRPRPRPYEPPRP, the “shrunken log2 fold change” value is reported as -0.451.
RRIRTRPPRLPRPRPRPIRGPRP was tested, and the “shrunken log2 fold change” value was 0.074.
RRIRERPPRLPRPRPRPVEIPRP was tested, and the “shrunken log2 fold change” value was -0.0716.
In the case of RRIRFRPPRLPRPRPRPHDHPRP, the “shrunken log2 fold change” value is reported as -0.508.
With RRIRSRPPRLPRPRPRPMYSPRP the “shrunken log2 fold change” value was -1.24.
With RRIRERPPRLPRPRPRPFIFPRP the “shrunken log2 fold change” value was -0.476.
For RRIRSRPPRLPRPRPRPGDPPRP, the “shrunken log2 fold change” value was 0.353.
In the case of RRIRIRPPRLPRPRPRPTMIPRP, the “shrunken log2 fold change” value is reported as -0.224.
For RRIRRRPPRLPRPRPRPNKLPRP, the “shrunken log2 fold change” value was -0.138.
In the case of RRIRQRPPRLPRPRPRPIGPPRP, the “shrunken log2 fold change” value is reported as 0.229.
For RRIRARPPRLPRPRPRPTNRPRP, the “shrunken log2 fold change” value was 0.05.
For RRIRKRPPRLPRPRPRPVIFPRP, the “shrunken log2 fold change” value was 0.265.
For RRIRPRPPRLPRPRPRPHTDPRP, the “shrunken log2 fold change” value was -0.327.
RRIRCRPPRLPRPRPRPQKWPRP was tested, and the “shrunken log2 fold change” value was -0.568.
For RRIRPRPPRLPRPRPRPVGLPRP, the “shrunken log2 fold change” value was 0.478.
For RRIRVRPPRLPRPRPRPNIFPRP, the “shrunken log2 fold change” value was -0.234.
For RRIRARPPRLPRPRPRPGLYPRP, the “shrunken log2 fold change” value was -0.077.
For RRIRRRPPRLPRPRPRPPSNPRP, the “shrunken log2 fold change” value was 0.0633.
RRIRIRPPRLPRPRPRPEVWPRP was tested, and the “shrunken log2 fold change” value was 0.217.
For RRIRWRPPRLPRPRPRPAIKPRP, the “shrunken log2 fold change” value was 0.0964.
For RRIRERPPRLPRPRPRPFSEPRP, the “shrunken log2 fold change” value was 0.0188.
With RRIRYRPPRLPRPRPRPMLMPRP the “shrunken log2 fold change” value was -0.13.
With RRIRLRPPRLPRPRPRPRARPRP the “shrunken log2 fold change” value was 0.619.
In the case of RRIRGRPPRLPRPRPRPETSPRP, the “shrunken log2 fold change” value is reported as 1.68.
For RRIRQRPPRLPRPRPRPDQLPRP, the “shrunken log2 fold change” value was -0.263.
RRIRNRPPRLPRPRPRPFIRPRP was tested, and the “shrunken log2 fold change” value was -0.111.
RRIRHRPPRLPRPRPRPNSFPRP was tested, and the “shrunken log2 fold change” value was 0.00867.
For RRIRGRPPRLPRPRPRPKHYPRP, the “shrunken log2 fold change” value was 0.0538.
RRIRSRPPRLPRPRPRPHRIPRP was tested, and the “shrunken log2 fold change” value was -0.706.
In the case of RRIRSRPPRLPRPRPRPQEEPRP, the “shrunken log2 fold change” value is reported as -0.0262.
For RRIRWRPPRLPRPRPRPLNVPRP, the “shrunken log2 fold change” value was -0.0654.
For RRIRARPPRLPRPRPRPKVYPRP, the “shrunken log2 fold change” value was -0.0122.
RRIRNRPPRLPRPRPRPIPCPRP was tested, and the “shrunken log2 fold change” value was -0.0228.
RRIRFRPPRLPRPRPRPYNEPRP was tested, and the “shrunken log2 fold change” value was -0.812.
In the case of RRIRQRPPRLPRPRPRPIGHPRP, the “shrunken log2 fold change” value is reported as -0.281.
For RRIRMRPPRLPRPRPRPRQFPRP, the “shrunken log2 fold change” value was 0.582.
In the case of RRIRKRPPRLPRPRPRPWHHPRP, the “shrunken log2 fold change” value is reported as -0.197.
For RRIRPRPPRLPRPRPRPPNQPRP, the “shrunken log2 fold change” value was 0.282.
For RRIRFRPPRLPRPRPRPINRPRP, the “shrunken log2 fold change” value was 0.0882.
In the case of RRIRRRPPRLPRPRPRPYNHPRP, the “shrunken log2 fold change” value is reported as -0.8.
With RRIRNRPPRLPRPRPRPWGCPRP the “shrunken log2 fold change” value was -0.00572.
In the case of RRIRYRPPRLPRPRPRPECMPRP, the “shrunken log2 fold change” value is reported as -0.417.
With RRIRKRPPRLPRPRPRPSDRPRP the “shrunken log2 fold change” value was 0.0691.
For RRIRVRPPRLPRPRPRPRYQPRP, the “shrunken log2 fold change” value was 0.171.
With RRIRARPPRLPRPRPRPFTKPRP the “shrunken log2 fold change” value was -0.295.
RRIRTRPPRLPRPRPRPADDPRP was tested, and the “shrunken log2 fold change” value was 0.165.
For RRIRDRPPRLPRPRPRPFLDPRP, the “shrunken log2 fold change” value was 0.431.
RRIRERPPRLPRPRPRPLHMPRP was tested, and the “shrunken log2 fold change” value was -0.203.
With RRIRTRPPRLPRPRPRPCFDPRP the “shrunken log2 fold change” value was -0.0899.
RRIRFRPPRLPRPRPRPDVPPRP was tested, and the “shrunken log2 fold change” value was -0.356.
For RRIRPRPPRLPRPRPRPMRTPRP, the “shrunken log2 fold change” value was 0.357.
With RRIRCRPPRLPRPRPRPDPYPRP the “shrunken log2 fold change” value was -0.197.
With RRIRLRPPRLPRPRPRPMRWPRP the “shrunken log2 fold change” value was 0.278.
For RRIRQRPPRLPRPRPRPFDEPRP, the “shrunken log2 fold change” value was -0.153.
With RRIRNRPPRLPRPRPRPYDTPRP the “shrunken log2 fold change” value was -0.22.
In the case of RRIRFRPPRLPRPRPRPRNQPRP, the “shrunken log2 fold change” value is reported as -0.114.
For RRIRTRPPRLPRPRPRPYRSPRP, the “shrunken log2 fold change” value was 0.0429.
With RRIRYRPPRLPRPRPRPMNNPRP the “shrunken log2 fold change” value was -1.28.
In the case of RRIRPRPPRLPRPRPRPHKFPRP, the “shrunken log2 fold change” value is reported as -0.547.
With RRIRERPPRLPRPRPRPKQAPRP the “shrunken log2 fold change” value was 0.156.
In the case of RRIRSRPPRLPRPRPRPACCPRP, the “shrunken log2 fold change” value is reported as 0.303.
In the case of RRIRIRPPRLPRPRPRPQWNPRP, the “shrunken log2 fold change” value is reported as -0.316.
With RRIRFRPPRLPRPRPRPSPVPRP the “shrunken log2 fold change” value was -0.00168.
In the case of RRIRDRPPRLPRPRPRPWATPRP, the “shrunken log2 fold change” value is reported as 0.0691.
RRIRTRPPRLPRPRPRPDRPPRP was tested, and the “shrunken log2 fold change” value was 0.188.
In the case of RRIRNRPPRLPRPRPRPQGNPRP, the “shrunken log2 fold change” value is reported as -0.0905.
For RRIRWRPPRLPRPRPRPVKQPRP, the “shrunken log2 fold change” value was -0.092.
RRIRLRPPRLPRPRPRPAWKPRP was tested, and the “shrunken log2 fold change” value was 0.151.
RRIRMRPPRLPRPRPRPELMPRP was tested, and the “shrunken log2 fold change” value was 3.86.
In the case of RRIRCRPPRLPRPRPRPQKYPRP, the “shrunken log2 fold change” value is reported as -0.698.
With RRIRRRPPRLPRPRPRPTRCPRP the “shrunken log2 fold change” value was 0.661.
